For assay [1], the target named is PEP17081 (Artificial sequence). The experiment in a line: affinity purification on anti-ABD agarose, spectrophotometric analysis of the eluted pool.
For assay [2], the target named is PEP06548 (Artificial sequence). The experiment in a line: affinity purification on anti-ABD agarose with about 2.3 mg ligand per ml resin, absorbance measurement.

Non-standard residues stand in square brackets, D forms with d. No end group written: not given here. Z06677 = not defined here

In assay [1], GSSLQ[Z06677][Z06677]VDC (designed binder, reading uncertain; also: printed as GSSLQ-[Z06677][Z06677]-VDC) [(Z06677)2-Cys] displayed a binding capacity (mg PEP17081 per ml resin) of 13. In assay [2], this molecule registered a purified protein obtained per ml of resin (mg per ml of resin) of 3.7. The same molecule registered a sample molecules per ligand in assay [2] (scale: PEP06548 molecule per) of 1.

The record behind these values is patent US10011641B2.
